The target in data set [1] is T1, R.CviJI restriction endonuclease (Chlorella virus IL-3A) (UniProt P52283).
T1 sequence: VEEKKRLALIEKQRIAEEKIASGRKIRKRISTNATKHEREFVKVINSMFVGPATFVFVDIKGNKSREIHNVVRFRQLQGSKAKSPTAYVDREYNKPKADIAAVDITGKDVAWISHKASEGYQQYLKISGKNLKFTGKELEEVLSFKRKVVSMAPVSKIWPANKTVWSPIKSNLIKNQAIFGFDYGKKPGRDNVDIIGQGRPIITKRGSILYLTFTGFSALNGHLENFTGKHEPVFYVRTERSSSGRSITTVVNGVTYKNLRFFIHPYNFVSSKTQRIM
The experiment in a line: cleavage_in_vitro.

In data set [2] the test system is M.CviJI methyltransferase (Chlorella virus IL-3A). Kind of data set: cell_activity. To be noted: p710 in E. coli; SacI 90%, HindIII 25%; improved-translation plasmids appeared 100% resistant.
Setting [3] is: CviJI*, 3 uncleaved, CviJI** 0 of 76 (Table 5).
[4] abbreviates: CviJI*, 5 uncleaved, CviJI** 1 of 76 (Table 5).

This note sets out measurements from US5472872.

Substance “TGCC (double strand) [TGCC site in pUC19 (relaxed R1 PyGCPy)]” registered an activity (cleaved junctions of 200) in data set [1] (CviJI*, 10 uncleaved, printed TOCC in Table 2, CviJI** 2 of 76 (Table 5)) of 13.

The substance “GGCG (double strand) [GGCG site in pUC19 (relaxed R2 PuGCPu)]” came in with an activity (cleaved junctions of 200) in data set [1] (CviJI*, 8 uncleaved, CviJI** 4 of 76 (Table 5)) of 18.

The substance “GGCC (double strand) [GGCC site in pUC19 (normal PuGCPy)]” returned an activity (cleaved junctions of 200) in data set [1] (CviJI*, 1 uncleaved, CviJI** 16 of 76 (Table 5)) of 24.

Turning to “GGCA (double strand) [GGCA site in pUC19 (relaxed R2 PuGCPu)]”, the activity (cleaved junctions of 200) in data set [1] (setting [3]) was 11.

In the case of “CGCT (double strand) [CGCT site in pUC19 (relaxed R1 PyGCPy)]”, in data set [1] (CviJI*, 7 uncleaved, CviJI** 2 of 76 (Table 5)), the activity (cleaved junctions of 200) came to 17.

For “GGCT (double strand) [GGCT site in pUC19 (normal PuGCPy)]”, the activity (cleaved junctions of 200) in data set [1] (CviJI*, 0 uncleaved, CviJI** 12 of 76 (Table 5)) was found to be 13.

On to “AGCC (double strand) [AGCC site in pUC19 (normal PuGCPy)]”, for which, in data set [1] (CviJI* (Mg, ATP, DTT), 1 uncleaved, CviJI** 13 of 76 (Table 5)), the activity (cleaved junctions of 200) amounted to 23.

In turn, “TGCG (double strand) [TGCG site in pUC19 (R3 PyGCPu)]” showed an activity (cleaved junctions of 200) in data set [1] (setting [3]) of 0.

On to “AGCG (double strand) [AGCG site in pUC19 (relaxed R2 PuGCPu)]”, for which the activity (cleaved junctions of 200) in data set [1] (CviJI*, 11 uncleaved, CviJI** 0 of 76 (Table 5)) amounted to 12.

On to “AGCT (double strand) [AGCT site in pUC19 (normal PuGCPy)]”, for which the activity (cleaved junctions of 200) in data set [1] (CviJI*, 0 uncleaved, CviJI** 25 of 76 (Table 5)) turned out to be 35.

“CGCG (double strand) [CGCG site in pUC19 (R3 PyGCPu)]” returned an activity (cleaved junctions of 200) in data set [1] (CviJI*, 27 uncleaved, CviJI** 0 of 76 (Table 5)) of 0.

In data set [1] (CviJI*, 4 uncleaved, CviJI** 0 of 76 (Table 5)), “CGCC (double strand) [CGCC site in pUC19 (relaxed R1 PyGCPy)]” gave an activity (cleaved junctions of 200) of 11.

In the case of “AGCA (double strand) [AGCA site in pUC19 (relaxed R2 PuGCPu)]”, the activity (cleaved junctions of 200) in data set [1] (setting [4]) came out at 13.

plasmid p710/pBMC5 (G/A)GC(T/C/G) sites showed an activity (% resistance to HaeIII) in data set [2] of 90.

In the case of “TGCA (double strand) [TGCA site in pUC19 (R3 PyGCPu)]”, the activity (cleaved junctions of 200) in data set [1] (CviJI*, 19 uncleaved, CviJI** 0 of 76 (Table 5)) was 0.

In data set [1] (setting [4]), “TGCT (double strand) [TGCT site in pUC19 (relaxed R1 PyGCPy)]” came in with an activity (cleaved junctions of 200) of 10.

Substance “CGCA (double strand) [CGCA site in pUC19 (R3 PyGCPu)]” gave an activity (cleaved junctions of 200) in data set [1] (CviJI*, 12 uncleaved, CviJI** 0 of 76 (Table 5)) of 0.
